Measurements published in patent US20220098305A1 (Hoffmann-La Roche, published 2022).
Positions count from the first letter of the chain named. Numbers in names are those of the source. Where two headings read alike, the source gives them in different places. Each block holds one binder with its values, some of them ahead of it.

Experiments:
human ICOS [1] = target: T1, human ICOS (human, UniProt Q9Y6W8 21-199); assay: cell-based or functional assay
T1 sequence: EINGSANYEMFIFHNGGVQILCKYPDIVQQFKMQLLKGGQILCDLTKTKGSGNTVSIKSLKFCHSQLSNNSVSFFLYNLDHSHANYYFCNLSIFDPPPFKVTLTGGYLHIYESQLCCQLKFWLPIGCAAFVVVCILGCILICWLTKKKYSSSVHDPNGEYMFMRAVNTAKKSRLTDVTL

human ICOS [2] = target: T1, human ICOS; assay: flow cytometry, SR cells
human FAP [3] = target: T2, human FAP (human, UniProt Q12884 1-760); assay: flow cytometry, NIH/3T3-huFAP clone 19 cells
T2 construct: also called hu FAP
Protocol: (§1) Briefly, suspension cells were harvested, counted, checked for viability and re-suspended at 1 million cells per ml in FACS buffer (PBS with 0.1% BSA). […] The staining was fixed for 20 min at 4° C. in the dark, using 75 μl of 1% PFA in FACS buffer per well.
(§2) Fluorescence was analyzed by FACS using a FACS Fortessa (Software FACS Diva). Binding curves and EC₅₀ values were obtained using GraphPadPrism 7.

human FAP [4] = target: T2, human FAP; assay: flow cytometry, NIH/3T3-huFAP clone 19 cells; remark: listed apart in the source
human ICOS [5] = target: T1, human ICOS; assay: flow cytometry, CHO cells expressing human ICOS
human ICOS [6] = target: T1, human ICOS; assay: flow cytometry, CHO cells expressing human ICOS; remark: listed apart in the source
Protocol: as §1, §2

cynomolgus ICOS [7] = target: T3, cynomolgus ICOS (cynomolgus, UniProt Q9Y6W8 21-195 (human entry)); assay: flow cytometry, activated cynomolgus PBMCs, CD4+ subset
T3 chain: T1 sequence with T54K, H81R, A129T, L136F, S152T, D176G, V177T, L179P
Protocol: as §1
(§3) Briefly, cynomolgus PBMCs were activated for 48 hours using Dynabeads™ Human T-Activator CD3/CD28 (Thermo Fischer #11131D) according to manufacturer instruction and stored in RPMI1640 medium containing 10% FCS and 1% Glutamax (Gibco 35050061) at 37° C., in a humidified incubator until subsequent binding experiment was performed, as described above.

cynomolgus ICOS [8] = target: T3, cynomolgus ICOS; assay: flow cytometry, activated cynomolgus PBMCs, CD8+ subset
Protocol: as §1, §3

human FAP [9] = target: T2, human FAP; assay: flow cytometry on NIH/3T3-huFAP clone 19 cells, geometric MFI
cynomolgus ICOS [10] = target: T3, cynomolgus ICOS; assay: flow cytometry on cynomolgus PBMCs activated 48 h with CD3/CD28 beads, CD4+ subset, MFI
Protocol: as §1, §3

cynomolgus ICOS [11] = target: T3, cynomolgus ICOS; assay: flow cytometry on cynomolgus PBMCs activated 48 h with CD3/CD28 beads, CD8+ subset, MFI
Protocol: as §1, §3

human ICOS [12] = target: T1, human ICOS; assay: flow cytometry on CHO cells expressing human ICOS, PE-labelled secondary antibody; y axis printed LOG10(MFI PE)
human FAP [13] = target: T2, human FAP; assay: flow cytometry, NIH/3T3-huFAP clone 19 cells; remark: listed apart in the source
murine FAP [14] = target: T4, murine FAP (murine, UniProt P97321 26-761, limits assumed); assay: flow cytometry, cells carrying murine FAP not told
T4 construct: also called mouse FAP

human ICOS [15] = target: T1, human ICOS; assay: flow cytometry, pre-activated human PBMCs, CD4+ subset
Protocol: as §1
(§4) Briefly, Peripheral blood mononuclear cells (PBMCs) were prepared by Histopaque (Sigma-Aldrich, Cat No. 10771-500ML Histopaque-1077) density centrifugation of enriched lymphocyte preparations of heparinized blood obtained from a Buffy Coat (“Blutspende Zürich”). The blood was diluted 1:2 with sterile DPBS and layered over Histopaque gradient (Sigma, #H8889). After centrifugation (450×g, 30 minutes, room temperature), the plasma above the PBMC-containing interphase was discarded and PBMCs transferred in a new falcon tube subsequently filled with 50 ml of PBS. The mixture was centrifuged (400×g, 10 minutes, room temperature), the supernatant discarded and the PBMC pellet washed twice with sterile PBS (centrifugation steps 350×g, 10 minutes). The resulting PBMC population was counted automatically (Cedex HiRes) and stored in RPMI1640 medium containing 10% FCS and 1% Glutamax (Gibco 35050061). […] After incubation the PBMCs were used for a subsequent binding experiment, as described above.

human ICOS [16] = target: T1, human ICOS; assay: flow cytometry, pre-activated human PBMCs, CD8+ subset
Protocol: as §1, §4

human FAP [17] = target: T2, human FAP; assay: flow cytometry on NIH/3T3-huFAP clone 19 cells, MFI on single cells
Protocol: as §1

murine FAP [18] = target: T4, murine FAP; assay: flow cytometry, % positive cells; cells bearing murine FAP not given
cynomolgus ICOS [19] = target: T3, cynomolgus ICOS; assay: flow cytometry on cynomolgus PBMCs activated 48 h with CD3/CD28 beads, CD4+ subset, MFI
human FAP [20] = target: T2, human FAP; assay: flow cytometry on NIH/3T3-huFAP clone 19 cells, AF647-labelled anti-human Fc secondary antibody, MFI
Protocol: as §1, §2

murine ICOS = target: T5, murine ICOS (murine, UniProt Q9WVS0 21-200); assay: flow cytometry, % positive cells; murine ICOS on recombinant CHO cells according to the legend, on pre-activated murine splenocytes according to the example
T5 sequence: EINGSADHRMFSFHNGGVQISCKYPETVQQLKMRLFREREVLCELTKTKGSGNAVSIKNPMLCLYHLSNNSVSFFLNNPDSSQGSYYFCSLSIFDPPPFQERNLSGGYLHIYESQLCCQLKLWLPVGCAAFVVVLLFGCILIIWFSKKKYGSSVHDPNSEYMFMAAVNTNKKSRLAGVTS

B1: Molecule 15, bispecific 2+1 anti-ICOS (009v1)/anti-FAP (4B9) huIgG1 P329GLALA kih (bispecific antibody)
heavy 1: EVRLDETGGGVVQPGRPMELSCVASGFTFSDYWMNWVRQSPEKGLEWVAQIRNKPYNYETYYSDSVKGRFTISRDDSKSRVYLQMNNLRAEDMGIYYCTWPRLRSSDWHFDVWGAGTTVTVSSASTKGPSVFPLAPSSKSTSGGTAALGCLVKDYFPEPVTVSWNSGALTSGVHTFPAVLQSSGLYSLSSVVTVPSSSLGTQTYICNVNHKPSNTKVDKKVEPKSCDKTHTCPPCPAPEAAGGPSVFLFPPKPKDTLMISRTPEVTCVVVDVSHEDPEVKFNWYVDGVEVHNAKTKPREEQYNSTYRVVSVLTVLHQDWLNGKEYKCKVSNKALGAPIEKTISKAKGQPREPQVCTLPPSRDELTKNQVSLSCAVKGFYPSDIAVEWESNGQPENNYKTTPPVLDSDGSFFLVSKLTVDKSRWQQGNVFSCSVMHEALHNHYTQKSLSLSPGGGGGSGGGGSGGGGSGGGGSEIVLTQSPGTLSLSPGERATLSCRASQSVTSSYLAWYQQKPGQAPRLLINVGSRRATGIPDRFSGSGSGTDFTLTISRLEPEDFAVYYCQQGIMLPPTFGQGTKVEIK
heavy 2: not shown
light: AIQMTQSPSSLSASLGGEVTITCKASQDINKNIAWYQHKPGRGPRLLIWYTSTLQTGIPSRFSGSGSGRDYSFTISNLEPEDFATYYCLQFDNLYTFGSGTKLEIRRTVAAPSVFIFPPSDEQLKSGTASVVCLLNNFYPREAKVQWKVDNALQSGNSQESVTEQDSKDSTYSLSSTLTLSKADYEKHKVYACEVTHQGLSSPVTKSFNRGEC
EC50 of activation of Jurkat-NFAT reporter cell line (human ICOS [1]): 4.44 nM | Max (Counts/sec), Jurkat-NFAT reporter cell line (human ICOS [1]): 39700 Counts/sec | EC50 (human ICOS [2]): 0.00139 nM | EC50 (human FAP [3]): 2.97 nM | EC50 (human FAP [4]): 0.00198 nM | EC50 (human ICOS [5]): 0.516 nM | Max (Log10(MFI)) (human ICOS [5]): 3.06 Log10(MFI) | EC50 (human ICOS [6]): 1.12 nM | EC50 (cynomolgus ICOS [7]): 2.09 nM | EC50 (cynomolgus ICOS [8]): 3.5 nM | EC50 (read off the curve) (human FAP [9]): ~2 nM | EC50 (read off the curve) (cynomolgus ICOS [10]): ~2 nM | EC50 (read off the curve) (cynomolgus ICOS [11]): ~3 nM | EC50 (read off the curve) (human ICOS [12]): ~0.5 nM

B4: Molecule 12, bispecific 2+1 anti-ICOS (1167)/anti-FAP (4B9) Crossfab-IgG P329G LALA (bispecific antibody)
heavy 1: EVRLLESGGGLVQPGGSLRLSCAASGFTFNTYAVHWVRQAPGKGLEWVSGIGGSGVRTYYADSVKGRLTISRDNSKNTLYLQMNSLRAEDTAIYFCAKDIYVADFTGYAFDIWGQGTMVTVSSASTKGPSVFPLAPSSKSTSGGTAALGCLVEDYFPEPVTVSWNSGALTSGVHTFPAVLQSSGLYSLSSVVTVPSSSLGTQTYICNVNHKPSNTKVDEKVEPKSCDKTHTCPPCPAPEAAGGPSVFLFPPKPKDTLMISRTPEVTCVVVDVSHEDPEVKFNWYVDGVEVHNAKTKPREEQYNSTYRVVSVLTVLHQDWLNGKEYKCKVSNKALGAPIEKTISKAKGQPREPQVCTLPPSRDELTKNQVSLSCAVKGFYPSDIAVEWESNGQPENNYKTTPPVLDSDGSFFLVSKLTVDKSRWQQGNVFSCSVMHEALHNHYTQKSLSLSP
light 1: DIQMTQSPSSVSASVGDRVTITCRASQGINNFLAWYQQKPGKAPKLLIYDASSLQSGVPSRFAGSGSGTDFTLTISSLQPEDFATYYCQQYNFYPLTFGGGTMVEIKRTVAAPSVFIFPPSDRKLKSGTASVVCLLNNFYPREAKVQWKVDNALQSGNSQESVTEQDSKDSTYSLSSTLTLSKADYEKHKVYACEVTHQGLSSPVTKSFNRGEC
heavy 2: not shown
light 2: EVQLLESGGGLVQPGGSLRLSCAASGFTFSSYAMSWVRQAPGKGLEWVSAIIGSGASTYYADSVKGRFTISRDNSKNTLYLQMNSLRAEDTAVYYCAKGWFGGFNYWGQGTLVTVSSASVAAPSVFIFPPSDEQLKSGTASVVCLLNNFYPREAKVQWKVDNALQSGNSQESVTEQDSKDSTYSLSSTLTLSKADYEKHKVYACEVTHQGLSSPVTKSFNRGEC
EC50 (human FAP [13]): 1.82 nM | EC50 (human ICOS [15]): ~12.6 nM | EC50 (human ICOS [16]): ~12.6 nM | EC50 (read off the curve) (human FAP [17]): ~2 nM

Second part, the binder after the results:

EC50 (human FAP [3]): 1.4 nM | EC50 (human FAP [13]): 1.54 nM | EC50 (human ICOS [6]): 41.7 nM | EC50 (murine FAP [14]): 0.177 nM | EC50 (human ICOS [15]): ~58 nM | EC50 (human ICOS [16]): ~124 nM | EC50 (read off the curve) (human FAP [17]): ~2 nM | EC50 (read off the curve) (murine FAP [18]): ~0.2 nM | binding result (cynomolgus ICOS [19]): binds | EC50 (read off the curve) (human FAP [20]): ~1 nM | binding result (murine ICOS): binds
B2: Molecule 10, bispecific monovalent anti-ICOS (1167)/anti-FAP (4B9) huIgG1 P329GLALA kih antibody (1+1) (bispecific antibody)
heavy 1: EIVLTQSPGTLSLSPGERATLSCRASQSVTSSYLAWYQQKPGQAPRLLINVGSRRATGIPDRFSGSGSGTDFTLTISRLEPEDFAVYYCQQGIMLPPTFGQGTKVEIKSSASTKGPSVFPLAPSSKSTSGGTAALGCLVKDYFPEPVTVSWNSGALTSGVHTFPAVLQSSGLYSLSSVVTVPSSSLGTQTYICNVNHKPSNTKVDKKVEPKSCDKTHTCPPCPAPEAAGGPSVFLFPPKPKDTLMISRTPEVTCVVVDVSHEDPEVKFNWYVDGVEVHNAKTKPREEQYNSTYRVVSVLTVLHQDWLNGKEYKCKVSNKALGAPIEKTISKAKGQPREPQVCTLPPSRDELTKNQVSLSCAVKGFYPSDIAVEWESNGQPENNYKTTPPVLDSDGSFFLVSKLTVDKSRWQQGNVFSCSVMHEALHNHYTQKSLSLSP
light 1: B4 light 2
heavy 2: not shown
light 2: B4 light 1
notes: CrossFab (VLCH1/VHCL) on the FAP arm; also called FAP-ICOS (1+1)

EC50 (human FAP [3]): 1.15 nM | EC50 (human ICOS [6]): 4.17 nM | EC50 (murine FAP [14]): 0.413 nM | EC50 (read off the curve) (murine FAP [18]): ~0.4 nM | binding result (cynomolgus ICOS [19]): binds | EC50 (read off the curve) (human FAP [20]): ~1 nM | binding result (murine ICOS): binds
B3: Molecule 11, bispecific 1+1 head-to-tail anti-ICOS (1167)/anti-FAP (4B9) huIgG1 P329GLALA kih antibody (bispecific antibody)
heavy 1: DKTHTCPPCPAPEAAGGPSVFLFPPKPKDTLMISRTPEVTCVVVDVSHEDPEVKFNWYVDGVEVHNAKTKPREEQYNSTYRVVSVLTVLHQDWLNGKEYKCKVSNKALGAPIEKTISKAKGQPREPQVCTLPPSRDELTKNQVSLSCAVKGFYPSDIAVEWESNGQPENNYKTTPPVLDSDGSFFLVSKLTVDKSRWQQGNVFSCSVMHEALHNHYTQKSLSLSPGGGGGSGGGGSGGGGSGGGGSEIVLTQSPGTLSLSPGERATLSCRASQSVTSSYLAWYQQKPGQAPRLLINVGSRRATGIPDRFSGSGSGTDFTLTISRLEPEDFAVYYCQQGIMLPPTFGQGTKVEIK
heavy 2: not shown
light: B4 light 1
notes: names and VH/VL of 4B9 are swapped; also called 1+1_HT; FAP-ICOS (HT)
